From patent publication US6884600B1, “Protein phosphatase-1 catalytic subunit interactions” (Medical Research Council London, priority 1996, dated 2005)
Like-named read-outs stand apart in the source and are kept apart here.

Experiments:
[1] = test system: MLC20 and glycogen phosphorylase; experiment: MLC20 phosphatase:phosphorylase phosphatase activity ratio of PP1 preparations; type: biochemical
Protocol: The M110 and M21 subunits are marked. The activity ratio, MLC20 phosphatase (MP):phosphorylase phosphatase (PhP) of the two preparations is also shown. Similar results were obtained in three different experiments. The activity ratio MP:PhP of PP1c is 0.07.
(§1) ^32P-labelled rabbit skeletal muscle phosphorylase a (containing 1.0 mol phosphate per mol subunit) was prepared by phosphorylation with phosphorylase kinase, ^32P-labelled rabbit skeletal muscle glycogen synthase (containing 1.5 mol/mol subunit in the sites 3 region) was prepared by phosphorylation with glycogen synthase kinase-3 [24]). ^32P-labelled chicken gizzard MLC20 and ^32P-labelled chicken gizzard heavy meromyosin (containing 1.0 mol phosphate per mol subunit) were prepared by phosphorylation with smooth muscle myosin light chain kinase. The dephosphorylation of phosphorylase a (10 μM), glycogen synthase (1 μM) and MLC20 (1 μM) and heavy meromyosin (1 μM) was carried out as in [24]. One unit of activity (U) was that amount which released […] of phosphate in one minute.
PP1M (0.01 ml, 0.4U/ml) was dissociated by incubation for 30 minutes with 500 μM arachidonic acid and then for 30 minutes with 0.08 ml of packed Protein G-Sepharose coupled to 0.08 mg of affinity purified anti-M21 antibody. The Protein G-Sepharose was pelleted, and the supernatant diluted at least 15-fold to allow the M110 subunit and PP1c to recombine. […]

myosin = target: T1, myosin (Gallus gallus, UniProt P10587); experiment: Myosin binding assay (pelleting with myosin); design: species or system chicken; conditions: myosin 1 μM, 15 min 0° C.
T1 construct: from tissue; host or cells: chicken gizzard
Outline: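 PP1M, PP1c, PP1M(ΔM21) or M110 fragments (30 nM; M110 fragments and M21 at 100 nM) incubated 15 min at 0° C with 1 μM myosin in 10 mM Hepes pH 7.5, 50 mM KCl, 5 mM MgCl2, then centrifuged 2 min at 13,000×g. Supernatant, pellet and total analysed by immunoblot or P-light chain phosphatase activity.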

M21 subunit = experiment: Far Western blotting: interaction with the M21 subunit; type: binding, chicken; conditions: probe 0.2 μg/ml
Protocol: A) PP1M 5 μg (track 1), 10 μg bacterial extract containing M110-(R714-I1004) (track 2), MBP-M110-(R714-I004) 1 μg (track 3), MBP-M110-(R714-L934) 1 μg (track 4), MBP-M110-(K933-I1004) 1 μg (track 5), MBP 1 μg (track 6), M110-(M1-E309) 2 μg (lane 7) and M110-(M1-S477) 2 μg (track 8) were run on a 12% SDS/polyacrylamide gel and stained with Coomassie Blue. B) same as A) except that 10-fold less protein was electrophoresed and after transfer to nitrocellulose the proteins were probed with digoxigenin-labelled M21 subunit (0.2 μg/ml). C) same as B) except that, after electrophoresis, the proteins were transferred to nitrocellulose and probed with digoxigenin-labelled M21-(M1-L146) (0.2 μg/ml).
A) GST-M21 5 μg (track 1), M21 5 μg (track 2), M21-(M1-L146) 5 μg (track 3), M21-(M1-E110) 20 μg (track 4) and M21-(E110-K186) 5 μg (track 5) were run on 16.5% polyacrylamide gels and stained with Coomassie Blue. The marker proteins ovalbumin (43 kDa) and carbonic anhydrase (29 kDa) are indicated. B) GST-M21 0.5 μg (track 1), M21 0.5 μg (track 2), M21-M1-L146) 0.5 μg (track 3), M21-(M1-E110) 5 μg (track 4) and M21-(E110-K186) 5 μg (track 5) were electrophoresed as in A) and after transfer to nitrocellulose the blots were probed with digoxigenin-labelled MBP-M110-(K933-I1004) (0.2 μg/Ml). C) same as B) except that, after electrophoresis, the proteins were transferred to nitrocellulose and probed with digoxigenin-labelled M21 subunit (0.2 μg/ml).
PP1M (0.5 μAg) was electrophoresed on a 12% SDS/polyacrylamide gel, transferred to nitrocellulose and probed with digoxigenin-labelled M21 subunit (0.2 μg/ml) (track 1) or digoxigenin-labelled M21-(M1-L146) (0.2 μg/ml) (track 2). The positions of the M110 subunit, the M21 subunit and PP1c are marked.
Proteins were labelled with digoxigenin and Far Western analyses carried out as described, except that the digoxigenin-labelled probe was used at a concentration of 0.2 μg/ml instead of 2 μg/ml. SDS/polyacrylamide gel electrophoresis was carried out on 7.5-15% gels according to Laemmli and on 16.5% gels according to Schagger and von Jagow. Protein was estimated according to Bradford.

PP1 = conditions: Beullens et al., 1992; read-out: inhibitory constant for PP1; cited from earlier work
PP1c [2] = target: T2, PP1c (Oryctolagus cuniculus, UniProt P62143); experiment: MLC20 (myosin P-light chain) phosphatase activity of PP1c; type: biochemical
T2 construct: from tissue; host or cells: rabbit skeletal muscle (PP1G dissociated with LiBr)
Protocol: (§2) A,B; Effects of M110-(M1-E309) (closed circles), M110-(M1-F38) (open circles) and M110-(D39-E309) (open triangles) on the MLC20 phosphatase […] and phosphorylase phosphatase (B) activities of PP1c were measured after incubating PP1c for 15 minutes at 30° C. with each fragment. The results are presented as a percentage of those obtained in experiments where the M110 fragments were omitted.
(§3) C,D; The effect of M110-(M1-A150) (open circles) and M110-(L24-Y496) (closed circles) on the MLC20 phosphatase (C) and phosphorylase phosphatase (D) activities of PP1c were measured as in A,B.
(A) The MLC20 phosphatase activity of PP1c was assayed after incubation for 15 minutes at 30° C. in the presence or absence of 1 μM GM-(G63-T93) and either 0.1 μM M110-(M1-F38) or 0.1 nM M110-(M1-E309).
(1-38, open circles) or M110[M1-K35] (1-35, closed circles) were incubated with PP1c for 15 min at 30° C. and reactions started with the ^32P-labelled MLC20 substrate. The results are expressed as a % of the activity determined in control incubations where the M110 peptides were omitted (100%). Similar results were obtained in three separate experiments.
(§4) The myosin-associated form of PP1 (PP1M) was from chicken gizzard and the glycogen-associated form of PP1 (PP1G) from rabbit skeletal muscle. The β isoform of PP1c was released from PP1G by incubation for 2 hours in 2M LiBr, then purified by gel-filtration on a 30×1 cm column of Superose 12 (Pharmacia, Milton Keynes, U.K.) in the presence of 0.5M LiBr. Glycogen protein particles from rat liver were used as the source of hepatic PP1G Digoxygenin-labelled PP1c (γ1-isoform, hereafter termed PP1) was prepared as in [9]. GL was expressed in E. coli as a glutathione-S-transferase (GST) fusion protein [7], termed GST-GL. The catalytic subunit of PP2A from bovine heart (PP2AC) was provided by Dr R. MacKintosh in this Unit. The phosphorylatable myosin light chain (MLC20) and heavy meromyosin from chicken gizzard were a gift from Dr M. Ikebe (Case Western Reserve University, Cleveland, USA). Thrombin and benzamidine-Agarose were purchased from Sigma (Poole, UK).
as §1
(§5) PP1c was isolated from the rabbit skeletal muscle PP1-GM complex as described previously (Johnson et al, 1996). Glycogen particles isolated from rat liver (Schelling el al, 1988) served as the source of PP1-GL. The dephosphorylation of glycogen phosphorylase (10 μM) and the isolated MLC20 of smooth muscle myosin (1 μM) by PP1c was carried out as described previously (Cohen et al., 1988; Alessi et al., 1992).
^32P-labelled myosin P-light chains containing 1.0 mol phosphate per mol subunit was prepared by phosphorylation with smooth muscle myosin light chain kinase. The dephosphorylation of myosin P-light chain (1 μM) was carried out as in [4] and one unit of activity (U) was that amount which catalysed the release of 1 μmole of phosphate in one min. When assaying PP1M in immunoprecipitates from the myofibrillar extracts, the tubes were shaken continuously and 3 nM okadaic acid was included to inhibit any PP2A present.

PP1GL = experiment: Phosphorylase phosphatase activity of PP1GL (hepatic glycogen particles); type: biochemical, rat; conditions: hepatic glycogen particles containing PP1-GL
Protocol: Hepatic glycogen particles were diluted in assay buffer to 0.6 phosphorylase phosphatase (PhP) mU per ml, incubated for 15 minutes at 30° C. with GM-(G63-T93) (closed circles), GM-(G63-K80) (open circles) or GM-(G63-N75) (closed triangles) and assayed as described in Example 1. The open triangles show the effect of GM-(G63-N75) which had been phosphorylated at Ser67 by PKA (pGM-(G63-N75)). Similar results were obtained in four experiments.
(A) Hepatic glycogen protein particles containing PP1-GL were diluted and incubated for 15 min at 30° C. with the indicated concentrations of either M110[M1-F38] (open circles) or M110[M1-K35] (closed circles) and the phosphatase reactions were initiated by addition of ^32P-labelled glycogen phosphorylase. The results are expressed as a percentage of the activity determined in control incubations where the M110 peptides were omitted. Similar results were obtained in three separate experiments. (B) The experiment was carried out as in (A), except that the peptide GM[G63-N75] (“wild type”, WT) and variants in which either Val 66 (V66A) (closed triangles) or Phe 68 (F68A) (closed circles) were changed to Ala, were used instead of the M110 peptides. Similar results were obtained in three separate experiments.
The myosin-associated form of PP1 (PP1M) was from chicken gizzard and the glycogen-associated form of PP1 (PP1G) from rabbit skeletal muscle. […]

PP1c [3] = target: T2, PP1c; experiment: Phosphorylase phosphatase activity of PP1c; type: biochemical, rabbit
Protocol: as §2, §3
(B) The phosphorylase phosphatase activity of PP1c was assayed as in A in the presence or absence of 1 μM GM-(G63-T93) and 1.0 nM M110-(M1-E309). The results are presented (SEM for three experiments) as a percentage of the PP1c activity measured in the absence of GM-(63-T93), M110-(M1-F38) or M110-(M1-E309).
as §4, §1, §5

T2 sequence (P62143 whole entry): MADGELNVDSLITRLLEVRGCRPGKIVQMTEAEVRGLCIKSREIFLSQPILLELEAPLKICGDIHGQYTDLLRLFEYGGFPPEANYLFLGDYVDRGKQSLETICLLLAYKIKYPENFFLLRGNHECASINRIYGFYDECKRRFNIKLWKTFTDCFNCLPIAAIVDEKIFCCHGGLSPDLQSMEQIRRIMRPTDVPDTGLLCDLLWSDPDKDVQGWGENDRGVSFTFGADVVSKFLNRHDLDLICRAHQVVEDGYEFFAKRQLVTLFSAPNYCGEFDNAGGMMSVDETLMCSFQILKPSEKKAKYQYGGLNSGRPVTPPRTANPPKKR
Chain of M21 subunit (as listed by the source): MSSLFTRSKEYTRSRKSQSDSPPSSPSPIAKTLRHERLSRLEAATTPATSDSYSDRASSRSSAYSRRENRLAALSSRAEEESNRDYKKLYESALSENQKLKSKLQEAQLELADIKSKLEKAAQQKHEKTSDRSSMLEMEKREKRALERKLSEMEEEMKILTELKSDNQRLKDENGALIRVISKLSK
T1 sequence (P10587 whole entry): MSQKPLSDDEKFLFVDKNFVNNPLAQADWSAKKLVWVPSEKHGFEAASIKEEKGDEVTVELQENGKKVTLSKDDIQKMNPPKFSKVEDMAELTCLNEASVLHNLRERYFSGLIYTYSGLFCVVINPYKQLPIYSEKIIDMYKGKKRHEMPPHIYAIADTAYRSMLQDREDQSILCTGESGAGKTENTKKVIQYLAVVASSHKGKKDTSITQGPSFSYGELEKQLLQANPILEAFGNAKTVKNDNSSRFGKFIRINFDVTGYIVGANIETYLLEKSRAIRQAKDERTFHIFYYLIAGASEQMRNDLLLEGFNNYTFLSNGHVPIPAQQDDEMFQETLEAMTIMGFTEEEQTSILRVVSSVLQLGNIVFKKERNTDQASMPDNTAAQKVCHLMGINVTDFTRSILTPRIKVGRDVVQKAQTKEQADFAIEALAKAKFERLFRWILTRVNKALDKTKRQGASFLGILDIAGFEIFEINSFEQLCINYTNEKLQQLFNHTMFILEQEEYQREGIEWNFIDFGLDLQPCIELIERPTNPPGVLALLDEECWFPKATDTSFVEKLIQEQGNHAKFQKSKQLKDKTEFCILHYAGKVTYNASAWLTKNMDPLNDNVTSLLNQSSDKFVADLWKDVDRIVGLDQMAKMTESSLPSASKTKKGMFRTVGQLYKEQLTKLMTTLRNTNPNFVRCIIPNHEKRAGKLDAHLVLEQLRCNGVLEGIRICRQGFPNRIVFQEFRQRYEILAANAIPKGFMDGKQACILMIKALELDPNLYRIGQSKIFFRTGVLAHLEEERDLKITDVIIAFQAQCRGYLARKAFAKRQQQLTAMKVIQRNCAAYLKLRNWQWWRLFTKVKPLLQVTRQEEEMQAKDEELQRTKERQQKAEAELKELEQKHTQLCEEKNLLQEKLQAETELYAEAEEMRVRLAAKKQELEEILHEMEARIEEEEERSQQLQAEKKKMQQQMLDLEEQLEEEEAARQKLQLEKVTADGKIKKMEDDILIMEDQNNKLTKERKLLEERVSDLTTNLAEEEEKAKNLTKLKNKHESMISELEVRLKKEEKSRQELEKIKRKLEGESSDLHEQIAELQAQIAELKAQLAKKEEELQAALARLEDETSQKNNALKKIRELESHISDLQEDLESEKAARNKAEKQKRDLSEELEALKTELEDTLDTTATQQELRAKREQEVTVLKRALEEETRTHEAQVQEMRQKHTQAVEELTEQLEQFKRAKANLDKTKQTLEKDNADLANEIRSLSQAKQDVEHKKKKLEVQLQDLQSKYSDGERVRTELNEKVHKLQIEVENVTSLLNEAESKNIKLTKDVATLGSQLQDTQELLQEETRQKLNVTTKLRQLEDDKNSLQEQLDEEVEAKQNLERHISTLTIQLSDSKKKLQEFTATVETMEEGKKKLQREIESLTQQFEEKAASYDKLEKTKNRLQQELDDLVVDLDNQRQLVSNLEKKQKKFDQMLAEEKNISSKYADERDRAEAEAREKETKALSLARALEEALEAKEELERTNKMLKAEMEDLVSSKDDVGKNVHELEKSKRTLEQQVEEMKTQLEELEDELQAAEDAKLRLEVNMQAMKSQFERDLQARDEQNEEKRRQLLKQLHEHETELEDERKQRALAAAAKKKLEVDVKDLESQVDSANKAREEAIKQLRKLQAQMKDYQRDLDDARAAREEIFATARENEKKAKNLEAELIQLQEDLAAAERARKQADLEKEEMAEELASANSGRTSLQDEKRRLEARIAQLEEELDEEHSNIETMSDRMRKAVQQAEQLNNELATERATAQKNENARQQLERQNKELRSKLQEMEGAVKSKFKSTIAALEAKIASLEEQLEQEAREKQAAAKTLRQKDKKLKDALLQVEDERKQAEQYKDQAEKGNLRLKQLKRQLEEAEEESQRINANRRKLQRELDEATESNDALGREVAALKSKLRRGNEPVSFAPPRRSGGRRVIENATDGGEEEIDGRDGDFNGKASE
T1 sequence (P02612 whole entry partner): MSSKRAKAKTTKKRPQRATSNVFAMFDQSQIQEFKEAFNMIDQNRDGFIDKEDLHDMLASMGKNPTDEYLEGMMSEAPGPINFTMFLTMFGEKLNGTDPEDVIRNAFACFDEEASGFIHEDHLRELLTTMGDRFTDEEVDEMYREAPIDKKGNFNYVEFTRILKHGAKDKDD
T1 sequence (P02607 whole entry partner): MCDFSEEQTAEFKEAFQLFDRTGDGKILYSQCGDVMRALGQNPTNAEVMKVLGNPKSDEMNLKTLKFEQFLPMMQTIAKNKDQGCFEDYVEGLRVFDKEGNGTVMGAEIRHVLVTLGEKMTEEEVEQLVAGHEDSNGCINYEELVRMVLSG

B1: PP1c: catalytic subunit of PP1 (protein)
chain: ADGELNVDSLITRLLEVRGCRPGKIVQMTEAEVRGLCIKSREIFLSQPILLELEAPLKICGDIHGQYTDLLRLFEYGGFPPEANYLFLGDYVDRGKQSLETICLLLAYKIKYPENFFLLRGNHECASINRIYGFYDECKRRFNIKLWKTFTDCFNCLPIAAIVDEKIFCCHGGLSPDLQSMEQIRRIMRPTDVPDTGLLCDLLWSDPDKDVQGWGENDRGVSFTFGADVVSKFLNRHDLDLICRAHQVVEDGYEFFAKRQLVTLFSAPNYCGEFDNAGGMMSVDETLMCSFQILKPSEKKAKYQYGGLNSGRPVTPPRTANPPKKR
- MLC20 phosphatase:phosphorylase phosphatase activity ratio [1]: 0.07
- binding to myosin (myosin): neither PP1c (FIG. 22) nor bovine serum albumin (data not shown) bound to myosin
- recognised by digoxigenin-labelled M21 subunit in Far Western blotting (M21 subunit): not

B2: NIPP-1: nuclear inhibitor of PP1 (protein, UniProt Q12972 1-351, looked up)
Nuclear inhibitor of protein …: MAAAANSGSSLPLFDCPTWAGKPPPGLHLDVVKGDKLIEKLIIDEKKYYLFGRNPDLCDFTIDHQSCSRVHAALVYHKHLKRVFLIDLNSTHGTFLGHIRLEPHKPQQIPIDSTVSFGASTRAYTLREKPQTLPSAVKGDEKMGGEDDELKGLLGLPEEETELDNLTEFNTAHNKRISTLTIEEGNLDIQRPKRKRKNSRVTFSEDDEIINPEDVDPSVGRFRNMVQTAVVPVKKKRVEGPGSLGLEESGSRRMQNFAFSGGLYGGLPPTHSEAGSQPHGIHGTALIGGLPMPYPNLAPDVDLTPVVPSAVNMNPAPNPAVYNPEAVNEPKKKKYAKEAWPGKKPTPSLLI
- Ki (PP1): 1 pM

B3: M110-(D39-E309): rat aorta M110 fragment, residues 39-309, containing the seven ankyrin repeats (protein, UniProt Q10728 39-309, looked up, fragment)
chain: DDGAVFLAACSSGDTDEVLKLLHRGADINYANVDGLTALHQACIDDNVDMVKFLVENGANINQPDNEGWIPLHAAASCGYLDIAEFLIGQGAHVGAVNSEGDTPLDIAEEEAMEELLQNEVNRQGVDIEAARKEEERIMLRDARQWLNSGHISDVRHAKSGGTALHVAAAKGYTEVLKLLIQAGYDVNIKDYDGWTPLHAAAHWGKEEACRILVDNLCDMETVNKVGQTAFDVADEDILGYLEELQKKQNLLHSEKRDKKSPLIESTANME
- effect on the MLC20 phosphatase activity of PP1c (PP1c [2]): failed to stimulate the MLC20 phosphatase activity of PP1c
- effect on the phosphorylase phosphatase activity of PP1GL (PP1GL): can enhance the phosphorylase activity of PP1GL
- effect on the phosphorylase phosphatase activity of PP1c (PP1c [3]): did not inhibit the phosphorylase phosphatase activity of PP1c
- effect on the phosphorylase phosphatase activity of PP1c (PP1c [3]; each peptide individually, at concentrations up to 1 μM): no effect
